Source: patent US20220362357A1, “Synergistic Combinations of Amino Acid Depletion Agent Sensitizers (AADAS) and Amino Acid Depletion Agents (AADA), and Therapeutic Methods of Use Thereof” (STICHTING RADBOUD UNIVERSITAIR MEDISCH CENTRUM, priority 2018, published 2022)

B1: PEG-Asparaginase: E. coli-derived peg-conjugated ASNase, used in the in vivo studies (protein, UniProt P00805 23-348, looked up)
L-asparaginase 2: LPNITILATGGTIAGGGDSATKSNYTVGKVGVENLVNAVPQLKDIANVKGEQVVNIGSQDMNDNVWLTLAKKINTDCDKTDGFVITHGTDTMEETAYFLDLTVKCDKPVVMVGAMRPSTSMSADGPFNLYNAVVTAADKASANRGVLVVMNDTVLDGRDVTKTNTTDVATFKSVNYGPLGYIHNGKIDYQRTPARKHTSDTPFDVSKLNELPKVGIVYNYANASDLPAKALVDAGYDGIVSAGVGNGNLYKSVFDTLATAAKTGTAVVRSSRVPTGATTQDAEVDDAKYGFVASGTLNPQKARVLLQLALTQTKDPQQIQQIFNQY
modifications: PEG conjugate (pegaspargase)
B2: …®: recombinantly produced E. coli ASNase, NCBI Ref Seq WP_000394140.1, ATC Code L01XX02 (protein, UniProt P00805 23-348, looked up)
L-asparaginase 2: LPNITILATGGTIAGGGDSATKSNYTVGKVGVENLVNAVPQLKDIANVKGEQVVNIGSQDMNDNVWLTLAKKINTDCDKTDGFVITHGTDTMEETAYFLDLTVKCDKPVVMVGAMRPSTSMSADGPFNLYNAVVTAADKASANRGVLVVMNDTVLDGRDVTKTNTTDVATFKSVNYGPLGYIHNGKIDYQRTPARKHTSDTPFDVSKLNELPKVGIVYNYANASDLPAKALVDAGYDGIVSAGVGNGNLYKSVFDTLATAAKTGTAVVRSSRVPTGATTQDAEVDDAKYGFVASGTLNPQKARVLLQLALTQTKDPQQIQQIFNQY

Tests used:
[1] = system: Human Acute Lymphoblastic Leukemia blasts in NSG mice; conditions: for bodyweight: NSG mice, ibrutinib 25 mg/kg oral daily 9 days, ONCASPAR 300 IU/kg IV days 1, 4, 7
Protocol: Procedure. The experimental design is schematized in FIG. 7A. Briefly, thirty-two (32) NOD.Cg-Prkdcscid I2rgtm1Wjl/SzJ (“NSG”) mice were injected intrafemorally with 500,000 leukemic blasts (2 injections/mouse) (Human Acute Lymphoblastic Leukemia). […] During and after treatment, mice were weighed weekly, and their welfare was evaluated daily. Blood samples were taken weekly for assessment of the leukemia burden. Termination was predefined with a leukemia burden reaching 50% leukemic blasts in peripheral blood as measured by flow cytometry or euthanasia because of overt signs of discomfort due to disease.
The primary outcome of this experiment was event-free survival, where event was defined as […]. Differences in event-free survival were analyzed using a Kaplan-Meier plot and significance was tested using the log-rank test.

LOUCY cells = test: T-ALL cell line viability and cell death by amine exposure; type: cell-based, human; conditions: 3 or 7 days
[2] = system: 30 cell lines covering a variety of cancer cell types; test: ApoTox-Glo Triplex Assay (viability, cytotoxicity, apoptosis), 3-4 days, panel; type: cell-based; conditions: in still other cases
Protocol: Two incubation times were tested. […] Ibrutinib was the AADAS as detailed above.
Cell culture conditions. Adherent tumor cells were grown as monolayer at 37° C. in a humidified atmosphere (5% CO2, 95% air). […] The cells were counted and their viability assessed by 0.25% trypan blue exclusion assay.
Cell plating for 3 to 4 day incubation.
Each compound was tested alone at 6 doses.
Experiments were performed in duplicate.
Two protocols of incubation were performed: overnight and over 3/4 days as indicated.
The assay was performed as recommended by the manufacturer. […] The assay was performed as recommended by the manufacturer. […] Apoptosis was measured in luminescence.

HBP-ALL cells = test: T-ALL cell line viability and cell death by amine exposure; type: cell-based, human; conditions: 3 or 7 days

| Molecule | bodyweight [1] | mice that reached the termination point (>50% leukemic blasts) after 10 weeks ([1]; weeks after transplantation) | leukemia development ([1]; human leukemic blasts in blood by flow cytometry) | sensitivity, cell death by amine exposure (LOUCY cells) | resistance of the cells [2] | sensitivity, cell death by amine exposure (HBP-ALL cells) |
| --- | --- | --- | --- | --- | --- | --- |
| C=CC(=O)N1CCC[C@@H](n2nc(-c3ccc(Oc4ccccc4)cc3)c3c(N)ncnc32)C1 [ibrutinib, reference compound] | mild and transient drop in bodyweight | 4/7 |  |  |  |  |
| B1 | strong but transient weight loss |  | stronger delay in leukemia development |  |  |  |
| B2 |  |  |  | extremely sensitive | somewhat resistant | extremely sensitive |
